From publication PMC12362618, “Development of the First Small-Molecule Inhibitor Targeting Oncostatin M for Treatment of Breast Cancer” (Journal of Medicinal Chemistry, 2025) come the findings set out here.

What is called Kd is the constant that tells how readily two partners part at equilibrium. The low end stands for higher affinity, the high end for lower affinity.

The assay concerns the target T1, immobilized OSM (Homo sapiens, UniProt P13725).
T1 construct: purchased R&D Systems 671-GP
T1 sequence (P13725 26-212 limits assumed): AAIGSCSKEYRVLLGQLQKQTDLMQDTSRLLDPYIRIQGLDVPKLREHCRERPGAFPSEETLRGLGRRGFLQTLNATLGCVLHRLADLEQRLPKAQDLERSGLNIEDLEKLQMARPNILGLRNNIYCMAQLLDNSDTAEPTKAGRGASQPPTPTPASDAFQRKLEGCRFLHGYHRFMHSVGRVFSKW
As to the kind of experiment: SPR binding kinetics of gp130 on immobilized OSM. Particulars: 25 °C. The method, then:
SPR assays were used to investigate the ability of SMI-10B13 to disrupt the binding of the OSM receptor. We began our SPR assays by replicating the gp130-to-immobilized OSM binding kinetic experiment published by Chollangi et al. to evaluate the reliability of our setup. In this experiment, increasing concentrations of gp130 were injected, and the association and dissociation phases were monitored. […] However, the signal generated was insufficient for meaningful results, likely due to the suboptimal availability of accessible binding sites for […], although maximum feasible concentrations of both immobilized and injected gp130 were reached. As a result, we shifted our focus to assess whether SMI-10B13 could influence the recruitment of gp130 to OSM in a surface competition binding assay. […] While this effect could be justified by site II competitive binding at high SMI concentrations, the NMR CSP experiments are indicative of SMI binding at site III (Figure ). […]
SPR experiments were performed on a Reichert SR7000 instrument that was fed by a Surveyor LC autosampler and pump. […] The real-time changes in refractive index units of the association and dissociation phases were monitored. […]

B1: gp130: glycoprotein 130 receptor subunit (R&D Systems, cat. #671-GP) injected over immobilized OSM in SPR (protein)
chain: ELLDPCGYISPESPVVQLHSNFTAVCVLKEKCMDYFHVNANYIVWKTNHFTIPKEQYTIINRTASSVTFTDIASLNIQLTCNILTFGQLEQNVYGITIISGLPPEKPKNLSCIVNEGKKMRCEWDGGRETHLETNFTLKSEWATHKFADCKAKRDTPTSCTVDYSTVYFVNIEVWVEAENALGKVTSDHINFDPVYKVKPNPPHNLSVINSEELSSILKLTWTNPSIKSVIILKYNIQYRTKDASTWSQIPPEDTASTRSSFTVQDLKPFTEYVFRIRCMKEDGKGYWSDWSEEASGITYEDRPSKAPSFWYKIDPSHTQGYRTVQLVWKTLPPFEANGKILDYEVTLTRWKSHLQNYTVNATKLTVNLTNDRYLATLTVRNLVGKSDAAVLTIPACDFQATHPVMDLKAFPKDNMLWVEWTTPRESVKKYILEWCVLSDKAPCITDWQQEDGTVHRTYLRGNLAESKCYLITVTPVYADGPGSPESIKAYLKQAPPSKGPTVRTKKVGKNEAVLEWDQLPVDVQNGFIRNYTIFYRTIIGNETAVNVDSSHTEYTLSSLTSDTLYMVRMAAYTDEGGKDGPEFTFTTPKFAQGEIE
Consider B1, for which binding was put at a Kd of 20.5 nM.
